{"source": "patent US20230381328A1", "about": "“COMPOUND FOR THE PREVENTION OR TREATMENT OF MYASTHENIA GRAVIS” (ABLEVIA BIOTECH GMBH, priority 2020, published 2023)", "data": [{"molecular_target": "monoclonal antibody mAB 198", "experiment": "peptide microarray, fluorescence, linear peptide", "units": {"relative signal [%]": "%"}, "values": [{"binder": "YNLKYNP", "note": "[YNLKYNP, linear mimotope]", "relative signal [%]": 8.3}, {"binder": "GSLRRNPAD", "relative signal [%]": 9.5}, {"binder": "QWVDYNLKFNP", "relative signal [%]": 10.9}, {"binder": "RWNPADYGH", "relative signal [%]": 9.4}, {"binder": "QWIDVRLRYNP", "relative signal [%]": 13.4}, {"binder": "RLRVNPADY", "relative signal [%]": 14.9}, {"binder": "YNLKFNP", "note": "[YNLKFNP, linear mimotope]", "relative signal [%]": 13.7}, {"binder": "RRNPADY", "note": "[RRNPADY, linear mimotope]", "relative signal [%]": 9.9}, {"binder": "WNPADYR", "note": "[WNPADYR, linear mimotope]", "relative signal [%]": 40.6}, {"binder": "WNPDDYGHV", "relative signal [%]": 8.8}, {"binder": "LHWNPAD", "note": "[LHWNPAD, linear mimotope]", "relative signal [%]": 15.7}, {"binder": "LRWNPADYH", "relative signal [%]": 15.3}, {"binder": "NPADYGR", "note": "[NPADYGR, linear mimotope]", "relative signal [%]": 12.2}, {"binder": "GGGSLRFNP", "relative signal [%]": 13}, {"binder": "VRLRWNPADYP", "relative signal [%]": 56.7}, {"binder": "NPADYDG", "note": "[NPADYDG, linear mimotope]", "relative signal [%]": 10.3}, {"binder": "WNPADYH", "note": "[WNPADYH, linear mimotope]", "relative signal [%]": 9.4}, {"binder": "VRHRWNPAD", "relative signal [%]": 8.1}, {"binder": "RLRFNPADY", "relative signal [%]": 11.4}, {"binder": "LRINPADYG", "relative signal [%]": 12.6}, {"binder": "SLRWNPADYHG", "relative signal [%]": 10.6}, {"binder": "RWNPADF", "note": "[RWNPADF, linear mimotope]", "relative signal [%]": 12.6}, {"binder": "IDVRLRFNP", "relative signal [%]": 15}, {"binder": "NPADYGD", "note": "[NPADYGD, linear mimotope]", "relative signal [%]": 14.1}, {"binder": "LRLNPADYG", "relative signal [%]": 17.3}, {"binder": "WNPADYGHI", "relative signal [%]": 13.7}, {"binder": "RYNPADY", "note": "[RYNPADY, linear mimotope]", "relative signal [%]": 16.5}, {"binder": "RGNPADYGG", "relative signal [%]": 13}, {"binder": "WRLRWNPAD", "relative signal [%]": 9}, {"binder": "DVRLRFNPADY", "relative signal [%]": 10}, {"binder": "RINPADY", "note": "[RINPADY, linear mimotope]", "relative signal [%]": 12.2}, {"binder": "LRFNPAD", "note": "[LRFNPAD, linear mimotope]", "relative signal [%]": 37.1}, {"binder": "RLYWNPADY", "relative signal [%]": 11}, {"binder": "LRWNPADYGGF", "relative signal [%]": 10.6}, {"binder": "IDVRLRYNP", "relative signal [%]": 12.2}, {"binder": "SLRINPADY", "relative signal [%]": 11}, {"binder": "DVRLRINPADY", "relative signal [%]": 8.5}, {"binder": "IDVRLRFNPAD", "relative signal [%]": 7.9}, {"binder": "LLGGGSLRFNP", "relative signal [%]": 16.7}, {"binder": "LRINPAD", "note": "[LRINPAD, linear mimotope]", "relative signal [%]": 9.2}, {"binder": "LRYNPAD", "note": "[LRYNPAD, linear mimotope]", "relative signal [%]": 15.9}, {"binder": "LRGNPAD", "note": "[LRGNPAD, linear mimotope]", "relative signal [%]": 48}, {"binder": "WNPDDYR", "note": "[WNPDDYR, linear mimotope]", "relative signal [%]": 11.4}, {"binder": "RPNPADYGG", "relative signal [%]": 8.6}, {"binder": "GGGSLRRNPAD", "relative signal [%]": 10.6}, {"binder": "NPADYHG", "note": "[NPADYHG, linear mimotope]", "relative signal [%]": 59.3}, {"binder": "GSLRFNPAD", "relative signal [%]": 9.3}, {"binder": "SLHWNPADY", "relative signal [%]": 13.6}, {"binder": "RHNPADY", "note": "[RHNPADY, linear mimotope]", "relative signal [%]": 8.9}, {"binder": "CNLKFNP", "note": "[CNLKFNP, linear mimotope]", "relative signal [%]": 11}, {"binder": "RPNPADY", "note": "[RPNPADY, linear mimotope]", "relative signal [%]": 9.5}, {"binder": "GNPADYGGI", "relative signal [%]": 8.9}, {"binder": "NPADYGI", "note": "[NPADYGI, linear mimotope]", "relative signal [%]": 8}, {"binder": "RLRWNPADYHG", "relative signal [%]": 12.4}, {"binder": "GGGSLRFNPAD", "relative signal [%]": 8.1}]}]}
